Source: PMC9352680, “A comprehensive thermodynamic model for RNA binding by the Saccharomyces cerevisiae Pumilio protein PUF4”

T1: PUF4 RNA-binding domain (Saccharomyces cerevisiae, UniProt P25339 537-888)
T1 sequence: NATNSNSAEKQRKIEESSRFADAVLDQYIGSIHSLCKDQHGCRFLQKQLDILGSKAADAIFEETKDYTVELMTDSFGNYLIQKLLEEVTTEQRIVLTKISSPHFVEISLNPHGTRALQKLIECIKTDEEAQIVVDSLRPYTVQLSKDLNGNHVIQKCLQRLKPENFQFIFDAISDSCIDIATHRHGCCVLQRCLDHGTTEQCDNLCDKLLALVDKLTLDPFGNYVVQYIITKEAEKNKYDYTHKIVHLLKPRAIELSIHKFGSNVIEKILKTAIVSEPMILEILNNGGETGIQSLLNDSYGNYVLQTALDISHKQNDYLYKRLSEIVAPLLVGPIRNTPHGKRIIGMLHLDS


Target: T1, PUF4 RNA-binding domain
Experiment: Mg; RNA-MaP; 20 mM Na-HEPES pH 7.4, 30 mM KOAc, 0.75 mM MgCl2, 0.1% Tween-20, 5% glycerol, 0.1 mg/mL BSA, 2 mM DTT; 25 C; 0.0125-409.6 nM protein
Conditions: tags: N-His6-TEV cleaved; C-SNAP kept, Cy3B-labelled; label: tethered on chip by stalled RNA polymerase

Binder | Kd [nM]
UCUCUUGCACACUAUUACUUCUCUU (ssRNA) [Id_ii_S1_P4E.4_K4.3_C4.2_[C-2G]_[T-1C]_H4.3_A4.1_F4.1_T4.2_[G10C]] | 74.1
UCUCUUUUACACUAUUAUUUCUCUU (ssRNA) [Id_ii_S1_P4E.4_K4.3_C4.2_[C-2T]_H4.3_A4.1_F4.1_T4.2_[G10T]] | 1130
UCUCUUGCACACUAUUAUUUCUCUU (ssRNA) [Id_ii_S1_P4E.4_K4.3_C4.2_[C-2G]_[T-1C]_H4.3_A4.1_F4.1_T4.2_[G10T]] | 71
UCUCUUUUACACUAUUAGCUCUCUU (ssRNA) [Id_ii_S1_P4E.4_K4.3_C4.2_[C-2T]_H4.3_A4.1_F4.1_T4.2_[T11C]] | 1600
UCUCUUUGACACUAUUAUUUCUCUU (ssRNA) [Id_ii_S1_P4E.4_K4.3_C4.2_[C-2T]_[T-1G]_H4.3_A4.1_F4.1_T4.2_[G10T]] | > 2300
UCUCUUUGUAGUUUAUCUCUU (ssRNA) [Ic_S1_P4E.1_K4.1_C4.1_H4.1_A4.1_[T5G]_[A6T]_F4.1_T4.1] | 18.5
UCUCUUUUACACUAUUAAUUCUCUU (ssRNA) [Id_ii_S1_P4E.4_K4.3_C4.2_[C-2T]_H4.3_A4.1_F4.1_T4.2_[G10A]] | 1120
UCUCUUUGUAUUACUAUCUCUU (ssRNA) [Ia_S1_P5E.1_K5.1_C5.1_H5.1_A5.1_F5.1_[T8C]_T5.1] | 9.98
UCUCUUUUACACUAUUAUAUCUCUU (ssRNA) [Id_ii_S1_P4E.4_K4.3_C4.2_[C-2T]_H4.3_A4.1_F4.1_T4.2_[G10T]_[T11A]] | 944
UCUCUUCUUAUAUAUUAAAUCUCUU (ssRNA) [Id_ii_S1_P4E.3_K4.2_C4.2_H4.2_A4.1_F4.1_T4.2_[G10A]_[T11A]] | 43.5
UCUCUUUGACACUAUUACUUCUCUU (ssRNA) [Id_ii_S1_P4E.4_K4.3_C4.2_[C-2T]_[T-1G]_H4.3_A4.1_F4.1_T4.2_[G10C]] | > 2300
UCUCUUCUUAUAUAUUAUUUCUCUU (ssRNA) [Id_ii_S1_P4E.3_K4.2_C4.2_H4.2_A4.1_F4.1_T4.2_[G10T]] | 15.7
UCUCUUGCACACUAUUACAUCUCUU (ssRNA) [Id_ii_S1_P4E.4_K4.3_C4.2_[C-2G]_[T-1C]_H4.3_A4.1_F4.1_T4.2_[G10C]_[T11A]] | 99.1
UCUCUUUGUUUAGUAUCUCUU (ssRNA) [Ib_S1_P4E.1_K4.1_C4.1_H4.1_[A4T]_A4.1_[T7G]_F4.1_T4.1] | 24.4
UCUCUUUGACACUAUUACCUCUCUU (ssRNA) [Id_ii_S1_P4E.4_K4.3_C4.2_[C-2T]_[T-1G]_H4.3_A4.1_F4.1_T4.2_[G10C]_[T11C]] | > 2300
UCUCUUACACACUAUUACGUCUCUU (ssRNA) [Id_ii_S1_P4E.4_K4.3_C4.2_[C-2A]_[T-1C]_H4.3_A4.1_F4.1_T4.2_[G10C]_[T11G]] | > 2300

Binder | Kd [nM]
UCUCUUUAACACUAUUAGCUCUCUU (ssRNA) [Id_ii_S1_P4E.4_K4.3_C4.2_[C-2T]_[T-1A]_H4.3_A4.1_F4.1_T4.2_[T11C]] | > 2300
UCUCUUUGUCUAAUAUCUCUU (ssRNA) [Ib_S1_P4E.1_K4.1_C4.1_H4.1_[A4C]_A4.1_[T7A]_F4.1_T4.1] | 83.9
UCUCUUGUACACUAUUAUCUCUCUU (ssRNA) [Id_ii_S1_P4E.4_K4.3_C4.2_[C-2G]_H4.3_A4.1_F4.1_T4.2_[G10T]_[T11C]] | 0.681
UCUCUUGCACACUAUUAACUCUCUU (ssRNA) [Id_ii_S1_P4E.4_K4.3_C4.2_[C-2G]_[T-1C]_H4.3_A4.1_F4.1_T4.2_[G10A]_[T11C]] | 69.5
UCUCUUGUACACUAUUAUUUCUCUU (ssRNA) [Id_ii_S1_P4E.4_K4.3_C4.2_[C-2G]_H4.3_A4.1_F4.1_T4.2_[G10T]] | 0.832
UCUCUUCUUAUAUAUUAUCUCUCUU (ssRNA) [Id_ii_S1_P4E.3_K4.2_C4.2_H4.2_A4.1_F4.1_T4.2_[G10T]_[T11C]] | 13.9
UCUCUUGCACACUAUUAAAUCUCUU (ssRNA) [Id_ii_S1_P4E.4_K4.3_C4.2_[C-2G]_[T-1C]_H4.3_A4.1_F4.1_T4.2_[G10A]_[T11A]] | 131
UCUCUUGUACACUAUUAAAUCUCUU (ssRNA) [Id_ii_S1_P4E.4_K4.3_C4.2_[C-2G]_H4.3_A4.1_F4.1_T4.2_[G10A]_[T11A]] | 0.983
UCUCUUCUUAUAUAUUAGCUCUCUU (ssRNA) [Id_ii_S1_P4E.3_K4.2_C4.2_H4.2_A4.1_F4.1_T4.2_[T11C]] | 7.8
UCUCUUUAACACUAUUACUUCUCUU (ssRNA) [Id_ii_S1_P4E.4_K4.3_C4.2_[C-2T]_[T-1A]_H4.3_A4.1_F4.1_T4.2_[G10C]] | > 2300
UCUCUUUUACACUAUUACUUCUCUU (ssRNA) [Id_ii_S1_P4E.4_K4.3_C4.2_[C-2T]_H4.3_A4.1_F4.1_T4.2_[G10C]] | 1160
UCUCUUCUUAUAUAUUAUGUCUCUU (ssRNA) [Id_ii_S1_P4E.3_K4.2_C4.2_H4.2_A4.1_F4.1_T4.2_[G10T]_[T11G]] | 12.2
UCUCUUUUACACUAUUAUCUCUCUU (ssRNA) [Id_ii_S1_P4E.4_K4.3_C4.2_[C-2T]_H4.3_A4.1_F4.1_T4.2_[G10T]_[T11C]] | 1280
UCUCUUGCACACUAUUACGUCUCUU (ssRNA) [Id_ii_S1_P4E.4_K4.3_C4.2_[C-2G]_[T-1C]_H4.3_A4.1_F4.1_T4.2_[G10C]_[T11G]] | 408
UCUCUUCUUAUAUAUUAGUUCUCUU (ssRNA) [If_S1_P4E.3_K4.2_C4.2_H4.2_A4.1_F4.1_T4.2] | 7.55
